For one molecule, Kd, koff and kon results are on record in US20250353907A1 (SHANGHAI SIMNOVA BIOTECHNOLOGY, published 2025).

The target in this experiment is T1, recombinant human CD19-His (human, UniProt P15391 20-291, limits assumed).
T1 construct: This is the analyte in SPR; also called human CD19 protein; CD19 antigen protein; not shown: His tag
T1 sequence (looked up): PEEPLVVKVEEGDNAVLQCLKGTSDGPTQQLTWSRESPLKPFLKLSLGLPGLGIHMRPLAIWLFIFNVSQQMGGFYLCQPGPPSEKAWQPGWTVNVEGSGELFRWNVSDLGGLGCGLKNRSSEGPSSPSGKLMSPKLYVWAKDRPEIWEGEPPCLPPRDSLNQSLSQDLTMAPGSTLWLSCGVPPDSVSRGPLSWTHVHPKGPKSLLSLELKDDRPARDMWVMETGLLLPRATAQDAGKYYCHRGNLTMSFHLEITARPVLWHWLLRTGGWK
Briefly: SPR (Biacore), CD19-His as analyte, 1:1 Langmuir model. The protocol: The anti-human CD19 antibody was captured using a Protein A chip (GE Healthcare; 29-127-558).
The sample and running buffer was HBS-EP+ (10 mM HEPES, 150 mM NaCl, 3 mM EDTA, 0.05% surfactant P20) (GE Healthcare; BR-1006-69). The flow cell was set at 25° C. The sample block was set at 16° C. Both were pretreated with the running buffer. In each cycle, first, the antibody to be tested was captured using the Protein A chip, and then a single concentration of CD19 antigen protein was injected. The association and dissociation processes of the antibody with the antigen protein were recorded, and finally, the chip was regenerated using Glycine pH 1.5 (GE Healthcare; BR-1003-54). The association was determined by injecting different concentrations of recombinant human CD19-His in the solution and maintaining for 240 s, wherein the flow rate was 30 μL/min, and the protein was diluted in a 1:1 dilution ratio from 200 nM (see detailed results for actual concentrations tested) to obtain 5 concentrations in total. The dissociation phase was monitored for up to 600 s and triggered by switching from the sample solution to the running buffer. The surface was regenerated by washing with 10 mM glycine solution (pH 1.5) at a flow rate of 30 μL/min for 30 s. The difference in bulk refractive index was corrected by subtracting the responses obtained from the […]. Blank injections were also subtracted (=double reference). The Langmuir 1:1 model was used to calculate the apparent KD and other kinetic parameters.
A general note: Surface plasmon resonance follows binding to a sensor surface in real time, without labels.

B1: hFMC63 (humanized FMC63, hFMC63-VH1 + hFMC63-VL1) (antibody, V domains shown)
VH: EVTLKESGPVLVKPTETLTLTCTVSGFSLSDYGVSWIRQPPGKALEWLAVIWGSETTYYNSALKSRLTISKDTSKSQVVLTMTNMDPVDTATYYCAKHYYYGGSYAMDYWGQGTTVTVSS
VL: DIQMTQSPSSLSASVGDRVTITCRASQDISKYLNWYQQKPGGAVKLLIYHTSRLHSGVPSRFSGSGSGTDYTLTISSLQPEDFATYYCQQGNTLPYTFGGGTKVEIK
Usually Kd stands for the concentration at which binding is half-saturated. The koff is the first-order rate constant of dissociation. In general, kon refers to the second-order rate constant of association. Regarding B1, the Kd was found to be 0.0195 nM, the koff turned out to be 1.8e-06 s⁻¹ and the association rate constant (kon) was 92400 M⁻¹ s⁻¹.
